Measurements: article PMC3762913

Assays:
Conditions in all cases: remark: other sources report otherwise
[1] = target: T1, wild type (WT) human peripheral myelin protein 22 (PMP22) (human), Q01453; experiment: cross-linking
T1 chain: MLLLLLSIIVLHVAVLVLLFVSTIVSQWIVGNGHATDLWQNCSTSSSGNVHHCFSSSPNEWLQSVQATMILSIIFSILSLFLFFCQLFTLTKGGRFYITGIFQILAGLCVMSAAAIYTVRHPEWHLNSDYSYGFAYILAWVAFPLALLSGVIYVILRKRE

[2] = target: T1, wild type (WT) human peripheral myelin …; experiment: cross-linking
[3] = target: T1, wild type (WT) human peripheral myelin …; experiment: cross-linking
[4] = target: T1, wild type (WT) human peripheral myelin …; experiment: cross-linking
[5] = target: T1, wild type (WT) human peripheral myelin …; experiment: SEC

fraction of cross-linked dimer [1]: 0.3 | fraction of cross-linked dimer [2]: 0.5 | stoichiometry N [2]: 2 | fraction of cross-linked dimer [3]: 0.2 | fraction of cross-linked dimer [4]: 0.6 | stoichiometry N [5]: 2
B1: wild type (WT) human peripheral myelin protein 22 (PMP22), Q01453 1-160 (natural protein)
chain: T1 chain
